Columns and labels:
[1] = biological target: T1, UPF1-3F (wt, UPF1R-3F) (human, UniProt Q92900-2 1-1118); test: MST
T1 sequence: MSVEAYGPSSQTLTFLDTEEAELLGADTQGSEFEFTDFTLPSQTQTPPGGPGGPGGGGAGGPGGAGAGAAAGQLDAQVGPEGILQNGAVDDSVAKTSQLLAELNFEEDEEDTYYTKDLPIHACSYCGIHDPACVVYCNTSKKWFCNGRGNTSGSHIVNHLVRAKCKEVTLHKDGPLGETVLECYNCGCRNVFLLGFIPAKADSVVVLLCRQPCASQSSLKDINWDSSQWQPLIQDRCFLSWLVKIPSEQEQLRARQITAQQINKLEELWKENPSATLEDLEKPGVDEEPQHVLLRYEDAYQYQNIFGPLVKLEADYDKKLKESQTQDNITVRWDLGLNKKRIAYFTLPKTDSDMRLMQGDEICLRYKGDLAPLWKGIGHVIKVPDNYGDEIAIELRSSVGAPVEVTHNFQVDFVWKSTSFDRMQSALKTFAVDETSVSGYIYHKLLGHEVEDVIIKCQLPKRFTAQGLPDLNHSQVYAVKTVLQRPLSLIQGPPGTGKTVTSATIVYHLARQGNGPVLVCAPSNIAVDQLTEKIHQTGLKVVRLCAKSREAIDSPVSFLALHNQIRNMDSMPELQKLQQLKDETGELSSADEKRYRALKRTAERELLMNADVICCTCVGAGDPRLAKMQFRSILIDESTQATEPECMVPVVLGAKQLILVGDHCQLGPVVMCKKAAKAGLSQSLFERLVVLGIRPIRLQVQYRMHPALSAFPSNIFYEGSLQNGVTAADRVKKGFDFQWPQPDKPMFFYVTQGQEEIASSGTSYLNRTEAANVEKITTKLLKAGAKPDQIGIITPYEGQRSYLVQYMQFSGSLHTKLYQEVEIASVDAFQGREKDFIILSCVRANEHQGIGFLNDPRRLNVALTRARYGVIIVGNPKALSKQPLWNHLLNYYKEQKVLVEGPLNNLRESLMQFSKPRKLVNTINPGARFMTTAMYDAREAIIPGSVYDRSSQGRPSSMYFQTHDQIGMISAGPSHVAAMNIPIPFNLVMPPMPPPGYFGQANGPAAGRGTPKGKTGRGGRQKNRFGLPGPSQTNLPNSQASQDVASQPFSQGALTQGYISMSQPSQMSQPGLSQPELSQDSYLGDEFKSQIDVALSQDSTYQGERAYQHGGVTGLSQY

[2] = biological target: T2, UPF1 RM-3F (RNA mutant, UPF1R RM-3F) (human, UniProt Q92900-2 1-1118, N524A;K547A;R843A); test: MST
T2 sequence: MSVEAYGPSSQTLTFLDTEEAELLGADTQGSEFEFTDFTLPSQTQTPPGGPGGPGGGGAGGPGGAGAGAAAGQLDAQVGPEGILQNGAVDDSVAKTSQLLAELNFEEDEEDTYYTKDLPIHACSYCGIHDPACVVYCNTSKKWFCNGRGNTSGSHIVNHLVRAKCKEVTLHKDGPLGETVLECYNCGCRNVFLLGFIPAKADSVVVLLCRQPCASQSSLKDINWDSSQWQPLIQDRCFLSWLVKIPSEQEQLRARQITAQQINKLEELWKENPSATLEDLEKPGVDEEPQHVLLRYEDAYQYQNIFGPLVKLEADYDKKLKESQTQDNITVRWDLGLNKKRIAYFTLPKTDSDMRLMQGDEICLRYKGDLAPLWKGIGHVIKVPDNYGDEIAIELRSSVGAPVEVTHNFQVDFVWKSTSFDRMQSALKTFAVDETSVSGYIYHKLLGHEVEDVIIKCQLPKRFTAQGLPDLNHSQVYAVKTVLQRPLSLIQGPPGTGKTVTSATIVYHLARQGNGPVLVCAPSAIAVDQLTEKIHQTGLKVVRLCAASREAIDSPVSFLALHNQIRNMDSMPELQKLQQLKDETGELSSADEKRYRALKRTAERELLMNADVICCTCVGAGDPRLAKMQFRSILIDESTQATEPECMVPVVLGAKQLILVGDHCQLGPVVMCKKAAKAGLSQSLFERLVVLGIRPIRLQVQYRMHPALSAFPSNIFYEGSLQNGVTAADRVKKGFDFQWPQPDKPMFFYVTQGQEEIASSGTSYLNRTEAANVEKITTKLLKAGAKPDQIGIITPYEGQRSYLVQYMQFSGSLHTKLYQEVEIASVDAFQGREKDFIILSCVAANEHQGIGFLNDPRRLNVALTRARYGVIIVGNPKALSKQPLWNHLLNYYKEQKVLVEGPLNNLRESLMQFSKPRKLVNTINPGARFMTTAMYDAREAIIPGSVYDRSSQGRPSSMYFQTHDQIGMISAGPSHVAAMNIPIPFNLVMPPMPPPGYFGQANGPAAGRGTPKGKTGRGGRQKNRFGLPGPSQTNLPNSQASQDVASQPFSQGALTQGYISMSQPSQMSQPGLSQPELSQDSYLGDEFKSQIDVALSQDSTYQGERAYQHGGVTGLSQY

Binder: UUUUUUUUUUUUUUUUUUUUUUUUUUUUUU (ssRNA) [U30 RNA]
- Kd [1]: 25.3 ± 4.43 nM
- binding result [2]: no binding

From paper doi:10.1101/2021.08.02.454737
